According to paper PMC5039030, “DPP9 is a novel component of the N-end rule pathway targeting the tyrosine kinase Syk” (eLife, 2016):
Values belong to the binder of their own block, whether it stands above or below them.

Columns and labels:
[1] = molecular target: T1, DPP9 S730G (inactive DPP9 variant) (UniProt Q86TI2 1-863, S730G); test: SPR; His-tagged DPP9 captured on a Ni2+ chelator chip (2500 to 3500 µRIU); peptide injected at 16 µM to 0.125 µM (Syk 1–31) or 32 µM to 1 µM (Syk 3–31); 20 mM Hepes, 150 mM NaCl, 0.005% Tween 20, 50 µM EDTA, pH 7.4; 40 µl/min; equilibrium binding analysis; details: both partners purified
T1 construct: DPP9 with the active-site serine mutated to glycine; Parent construct is surmised to be DPP9-short as in m1; source: recombinant

[2] = molecular target: T2, recombinant DPP9-short (His-tagged DPP9 wild type) (UniProt Q86TI2 1-863); test: as above; details: both partners purified
T2 construct: DPP9, short isoform (DPP9-short); The His tag is named only for the SPR experiment; also called DPP9 wt; dipeptidylpeptidase 9
T2 sequence (Q86TI2 whole entry, canonical isoform): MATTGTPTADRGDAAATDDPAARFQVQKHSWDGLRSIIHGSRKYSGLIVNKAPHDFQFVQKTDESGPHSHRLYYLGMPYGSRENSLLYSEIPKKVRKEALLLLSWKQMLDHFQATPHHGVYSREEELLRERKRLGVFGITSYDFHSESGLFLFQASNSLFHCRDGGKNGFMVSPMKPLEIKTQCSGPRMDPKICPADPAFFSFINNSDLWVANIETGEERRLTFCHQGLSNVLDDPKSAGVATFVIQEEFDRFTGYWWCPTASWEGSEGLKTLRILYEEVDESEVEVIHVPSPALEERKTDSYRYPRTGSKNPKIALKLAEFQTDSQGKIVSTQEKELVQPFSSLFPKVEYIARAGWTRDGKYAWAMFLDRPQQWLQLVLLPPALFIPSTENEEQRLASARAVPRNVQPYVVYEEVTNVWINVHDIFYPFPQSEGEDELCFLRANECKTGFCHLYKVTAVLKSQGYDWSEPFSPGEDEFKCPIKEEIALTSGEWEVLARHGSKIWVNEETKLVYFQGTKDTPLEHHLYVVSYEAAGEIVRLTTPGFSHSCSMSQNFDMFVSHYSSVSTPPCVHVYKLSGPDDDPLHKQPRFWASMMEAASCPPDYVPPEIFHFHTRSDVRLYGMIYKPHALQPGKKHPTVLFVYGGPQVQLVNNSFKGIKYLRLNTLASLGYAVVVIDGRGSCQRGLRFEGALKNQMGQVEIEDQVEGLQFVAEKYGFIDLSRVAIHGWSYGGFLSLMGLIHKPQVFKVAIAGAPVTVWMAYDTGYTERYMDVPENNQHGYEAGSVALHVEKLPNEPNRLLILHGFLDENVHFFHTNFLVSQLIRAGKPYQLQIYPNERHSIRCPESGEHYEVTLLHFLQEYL

T1 sequence (Q86TI2 whole entry S730G): as the sequence (Q86TI2 whole entry, canonical isoform) above, with S730G counted along it

Kd [1]: 284 µM
Kd [2]: 52 µM
B1: synthetic Syk (1–31) peptide covering the first 31 amino acids of full-length Syk (peptide)
peptide: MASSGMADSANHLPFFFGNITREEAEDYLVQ
notes: tyrosine kinase Syk, residues 1–31; also called Syk N-terminus peptide (1–31); Syk amino terminus peptide 1–31; source: synthetic peptide (custom-made by GenScript, >80% purity)

Kd [2]: 156 µM
B2: Syk△MA (3–31) peptide (peptide)
peptide: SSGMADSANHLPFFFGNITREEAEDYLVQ
notes: tyrosine kinase Syk, residues 3–31; also called Syk (3–31); source: synthetic peptide (custom-made by GenScript, >80% purity)
